Measurements taken from patent publication US6972319B1, “Pituitary adenylate cyclase activating peptide (PACAP)receptor 3 (R3) agonists and their pharmacological methods of use” (priority 1999, dated 2005).
No end group written: not given here.

T1: PACAP-R3 (human, UniProt P41587 24-438)
T1 sequence (looked up): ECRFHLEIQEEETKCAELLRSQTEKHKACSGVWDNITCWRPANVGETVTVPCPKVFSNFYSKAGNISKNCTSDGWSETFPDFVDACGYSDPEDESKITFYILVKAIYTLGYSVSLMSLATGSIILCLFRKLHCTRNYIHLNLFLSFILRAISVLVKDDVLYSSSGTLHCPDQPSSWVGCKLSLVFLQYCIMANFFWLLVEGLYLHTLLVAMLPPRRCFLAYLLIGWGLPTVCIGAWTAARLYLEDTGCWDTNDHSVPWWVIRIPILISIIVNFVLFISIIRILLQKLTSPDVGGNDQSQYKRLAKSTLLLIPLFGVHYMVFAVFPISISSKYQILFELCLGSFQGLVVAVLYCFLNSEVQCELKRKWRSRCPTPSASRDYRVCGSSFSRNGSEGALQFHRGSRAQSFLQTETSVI


These binders were tested against T1, PACAP-R3 (assay: cell-based or functional assay).

Row | Binder | R3 EC50 [nM] | R3 Selectivity
1 | HSDGIFTDSYSRYRKQMAVKKYLAAVKKYLAAVRHG-NH2 [R3P17] | 4 | 2
2 | HSDAVFTDNYTRLRKQVAAKKYLQSIKKKR [R3P77] | 0.4 | 500
3 | HSDAVFTDQYTRLRKQLAAKKYLNTIKNKRY [R3P72] | 0.16 | > 600
4 | HSDAVFTDQYTRLRKQLAAHKYLNTIKNKRY [R3P75] | 0.3 | > 500
5 | HSDAVFTENYTKLRKQLAAKKYLNDLKKGGT [R3P3] | 0.75 | 130
6 | HSDAVFTENYTKLRKQLAAKKYLNDLLNGGT [R3P10] | 11 | 0.3
7 | HSDGIFTESYSRYRKQMAVKKYLAALKKKRYKQRVKNK [R3P6] | 80 | 3
8 | HSDAVFTDNYTRLRKQLAAKKYLNDILKGGT [R3P23] | 0.43 | 23
9 | HSDAVFTDNYTRLRKQLAVKKYLNDILKGGT [R3P28] | 7 | 1
10 | HSDAVFTDNYTRLRKQLAAKKYLNDILNGGT [R3P27] | 0.8 | 8
11 | HSDAVFTENYTRLRKQMAVKKYLNSLKK-NH2 [R3P7] | 4 | 0.5
12 | HSDGIFTDSYSRYRKQLAAKKYLADVKKGGT [R3P37] | 4 | 18
13 | HSDAVFTDNYTRLRKQVAAKKYLNSIKK [R3P62] | 1.8 | 100
14 | HSDAVFTDNYTRLRKQVAAKKYLNSIKKKR [R3P78] | 1.1 | 230
15 | HSDAVFTDNYTRLRKQMAVKKYLNSIKKGGT [R3P9] | 2 | 20
16 | HSDAVFTDNYTRLRKQVAAKKYLQSIKNKRY [R3P66] | 0.4 | 250

Row | Binder | R3 EC50 [nM] | R3 Selectivity
17 | HSDAVFTDNYTRLRKQMAAKKYLNTIKNKRY [R3P70] | 0.4 | > 250
18 | HSDAVFTDNYTRLRKQVAAKKYLNSIKNKRY [R3P79] | 0.5 | 
19 | HSDAVFTDNYTRLRKQVAAKKYLNSIKNKRY [R3P68] | 0.5 | 
20 | HSDAVFTDNYTRLRKQMAAKKYLQSIKNKRY [R3P69] | 0.5 | 190
21 | HSDAVFTDNYTRLRKQMAAHKYLNSIKNKRY [R3P73] | 0.3 | 170
22 | HSDAVFTDNYTRLRKQMAAKHYLNSIKNKRY [R3P74] | 0.6 | 150
23 | HSDAVFTDNYTRLRKQLAAKKYLNTIKNKRY [R3P67] | 0.3 | 330
24 | HSDAVFTDQYTRLRKQMAAKKYLNSIKNKRY [R3P71] | 0.09 | 660
25 | HSDGIFTDSYSRYRKQMAVKKYLAAVKK [R3P40] | 0.7 | 2
26 | HSDAVFTDNYTRLRKQMAAKKYLNSIKNKR [R3P65] | 0.6 | 130
27 | HSDAVFTENYTKLRKQLAAKKYLNDLKK [R3P5] | 7 | 30
28 | HSDAVFTDNYTRLRKQVAVKKYLQSIKKKR [R3P80] | 0.44 | 
29 | HSDGIFTDSYSRYRKQLAVKKYLAAVKK [R3P39] | 0.5 | 2
30 | HSDGIFTDSYSRYRKQMAVKKYLAAVKQGGT-NH2 [R3P16] | 10 | 1.4
31 | HSDGIFTDSYSRYRKQLAAKKYLADVKK [R3P38] | 2.3 | 7
32 | HSDAVFTDNYTRLRKQMAVKKYLNSIKK-NH2 [R3P8] | 1.4 | 1.5

Results, then the binder that gave them:

Row | R3 EC50 [nM] | R3 Selectivity | Binder
33 | 0.18 | 30 | HSDAVFTDNYTRLRKQVAAKKYLQSILKK [R3P85]
34 | 0.2 | 500 | HSDAVFTDNYTRLRKQMAKKKYLNSIKNKR [R3P104]
35 | 0.3 | 3 | HSDAVFTDNYTRLRKQMALKKYLNSIKNKR [R3P105]
36 | 60 | 5 | HSDAVFTDNYTRLRKQMAHKKYLNSIKNKR [R3P102]
37 | 1 | 40 | HSDAVFTDNYTRLRKQMAEKKYLNSIKNKR [R3P99]
38 | 0.06 | 15 | HSDAVFTDNYTRLRKQVAVKKYLQSILKK [R3P89]
39 | 0.5 | 100 | HSDAVFTDNYTRLRKQVAVKKYLQSIKKK [R3P81]
40 | 0.4 | 23 | HSDAVFTDNYTRLRKQVAVKKYLQSIKNKRY [R3P82]
41 | 0.02 | 100 | HSDAVFTDNYTRLRKQVAAKKYLQSILNKRY [R3P92]
42 | 0.08 | 60 | HSDAVFTDNYTRLRKQVAAKKYLQSILKKRY [R3P83]
43 | 0.2 | 3 | HSDAVFTDNYTRLRKQVAVKKYLQSILKKRY [R3P87]
44 | 0.3 | 30 | HSDAVFTDNYTRLRKQMAFKKYLNSIKNKR [R3P100]
45 | 0.8 | 110 | HSDAVFTDNYTRLRKQVAAKKYLQSIKNK [R3P86]
46 | 0.09 | 100 | HSDAVFTDNYTRLRKQVAAKKYLQSILNK [R3P94]
47 | 0.05 | 8 | HSDAVFTDNYTRLRKQMAIKKYLNSIKNKR [R3P103]
48 | 0.14 | 40 | HSDAVFTDNYTRLRKQVAAKKYLQSILNKR [R3P93]
49 | 0.08 | 12 | HSDAVFTDNYTRLRKQVAVKKYLQSILKKR [R3P88]
50 | 0.06 | 40 | HSDAVFTDNYTRLRKQVAAKKYLQSILKKR [R3P84]
51 | 1 | 400 | HSDAVFTDNYTRLRKQMAGKKYLNSIKNKR [R3P101]
